Four molecules from patent US6358738 (Harvard, dated 2002) can be followed below.

The target in series [1] is T1, Plk 323-499 (two-hybrid bait, wild-type polo box) (murine (mammalian Plk), UniProt Q07832 323-499).
T1 construct: Bait fusion expressed in yeast
In words: yeast two-hybrid screen, mouse embryo cDNA library. The text has this:
Using the terminology of the two-hybrid system (Vojtek et al., 1993), vectors were engineered to have Plk carboxy terminal constructs as bait (see FIG. 11) and a mouse embryo 9.5/10.5-day cDNA library as prey. (A different strategy was used to identify TCTP/p23, i.e., full length Plk and a cDNA library from HeLa cells with inserts of 1–2 kb in the Examples, infra).

In series [2] the target is T1, Plk 323-499 (two-hybrid bait, wild-type …). In words: yeast two-hybrid.
Series [3] deals with T2, GST-fusion protein of full-length TCTP/p23.
T2 chain: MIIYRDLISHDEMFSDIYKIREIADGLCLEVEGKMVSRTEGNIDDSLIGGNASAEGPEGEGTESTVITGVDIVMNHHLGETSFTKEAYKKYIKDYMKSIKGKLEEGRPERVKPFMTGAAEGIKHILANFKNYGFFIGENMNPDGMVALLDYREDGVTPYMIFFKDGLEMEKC

The target in a further series is HA-Snk (UniProt P53351 1-682). Put plainly: interaction of recombinant proteins produced in insect cells with baculovirus (GST-fusion). The text has this: Full-length TCTP/p23 (SEQ ID No:27) cDNA was isolated and cloned into a pGEX vector to produce a GST-fusion protein.
Chain of HA-Snk (P53351 whole entry, the tested form may be a part): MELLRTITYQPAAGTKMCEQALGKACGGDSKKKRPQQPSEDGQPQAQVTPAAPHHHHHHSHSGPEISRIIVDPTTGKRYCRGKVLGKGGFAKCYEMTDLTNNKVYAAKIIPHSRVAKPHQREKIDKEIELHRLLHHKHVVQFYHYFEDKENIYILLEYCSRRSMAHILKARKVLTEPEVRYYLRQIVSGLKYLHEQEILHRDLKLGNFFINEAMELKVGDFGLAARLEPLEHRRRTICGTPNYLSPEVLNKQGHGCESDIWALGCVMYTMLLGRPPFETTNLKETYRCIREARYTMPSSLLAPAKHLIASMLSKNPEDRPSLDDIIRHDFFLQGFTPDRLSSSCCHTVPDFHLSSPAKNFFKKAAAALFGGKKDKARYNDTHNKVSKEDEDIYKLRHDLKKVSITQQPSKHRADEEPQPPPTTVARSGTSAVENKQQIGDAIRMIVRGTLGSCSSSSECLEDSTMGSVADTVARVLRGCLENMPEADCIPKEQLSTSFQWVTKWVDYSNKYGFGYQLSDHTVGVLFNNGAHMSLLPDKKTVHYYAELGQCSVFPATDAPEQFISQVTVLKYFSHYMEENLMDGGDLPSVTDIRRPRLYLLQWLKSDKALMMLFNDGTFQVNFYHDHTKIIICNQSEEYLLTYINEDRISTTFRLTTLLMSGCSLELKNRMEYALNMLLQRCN

B1: Plk 500-603 (two-hybrid prey clone) (other, not shown: large carriers)
chain: REGDELARLPYLRTWFRTRSAIILHLSNGTVQINFFQDHTKLILCPLMAAVTYINEKRDFQTYRLSLLEEYGCCKELASRLRYARTMVDKLLSSRSASNRLKAS
For the molecule B1, in series [1], the binding result is “binds”.

B2: chaperonin-containing-TCP (CCT) epsilon subunit, amino acid residues 13-139, two-hybrid prey clone (other, not shown: large carriers)
chain: GRPFLIIKDQDRKSRLMGLEALKSHIMAAKAVANTMRTSLGPNGLDKMMVDKDGDVTITNDGATILSMMDVDHQIAKLMVELSKSQDDEIGDGTTGVVVLAGALLEEAEQLLDRGIHPIRIADGYEQ
notes: also called CCT-ε
On to B2, for which, in series [2], the binding result is “binds”.

B3: HA-Plk (protein)
chain: MNAAAKAGKLARAPADLGKGGVPGDAVPGAPVAAPLAKEIPEVLVDPRSRRQYVRGRFLGKGGFAKCFEISDADTKEVFAGKIVPKSLLLKPHQKEKMSMEISIHRSLAHQHVVGFHDFFEDSDFVFVVLELCRRRSLLELHKRRKALTEPEARYYLRQIVLGCQYLHRNQVIHRDLKLGNLFLNEDLEVKIGDFGLATKVEYEGERKKTLCGTPNYIAPEVLSKKGHSFEVDVWSIGCIMYTLLVGKPPFETSCLKETYLRIKKNEYSIPKHINPVAASLIQKMLQTDPTARPTIHELLNDEFFTSGYIPARLPITCLTIPPRFSIAPSSLDPSSRKPLKVLNKGVENPLPDRPREKEEPVVRETNEAIECHLSDLLQQLTSVNASKPSERGLVRQEEAEDPACIPIFWVSKWVDYSDKYGLGYQLCDNSVGVLFNDSTRLILYNDGDSLQYIERDGTESYLTVSSHPNSLMKKITLLNYFRNYMSEHLLKAGANITPREGDELARLPYLRTWFRTRSAIILHLSNGTVQINFFQDHTKLILCPLMAAVTYINEKRDFQTYRLSLLEEYGCCKELASRLRYARTMVDKLLSSRSASNRLKAS
As to B3, the “phosphorylation of TCTP/p23 by Plk kinase activity” value in series [3] was “phosphorylated by Plk on serine residues at positions 46 and 64”.

B4: GST-fusion protein of full-length TCTP/p23 (other)
chain: T2 chain
notes: Full-length TCTP/p23 cDNA cloned into a pGEX vector to produce a GST-fusion protein; also called GST-TCTP/p23; not shown: glutathione-S-transferase (GST) from pGEX vector
In the case of B4, the binding result with HA-Snk is “no binding”.
